One block for each binder: values may come before it. Bridges are numbered along the chain shown (N, C = ends). Primed or numbered codes have the meaning given here. [ ]: non-standard residue; d: D form. cleavable peptide, 4x polyethylene glycol = not defined here; Ygp = O-(8x polyethylene glycol-amino)-tyrosine; Yn3 = O-(9x polyethylene glycol-azido)-tyrosine; 4x polyethylene glycol = not defined here; PEG16′ = 16x polyethylene glycol; hSer = N[C@@H](CCO)C(=O)O; Nle = CCCC[C@H](N)C(=O)O
Target: T1, IL-2 receptor βγ complex on pan T cells (human, UniProt P14784 27-551; P31785 23-369)
T1 sequence (looked up) 1: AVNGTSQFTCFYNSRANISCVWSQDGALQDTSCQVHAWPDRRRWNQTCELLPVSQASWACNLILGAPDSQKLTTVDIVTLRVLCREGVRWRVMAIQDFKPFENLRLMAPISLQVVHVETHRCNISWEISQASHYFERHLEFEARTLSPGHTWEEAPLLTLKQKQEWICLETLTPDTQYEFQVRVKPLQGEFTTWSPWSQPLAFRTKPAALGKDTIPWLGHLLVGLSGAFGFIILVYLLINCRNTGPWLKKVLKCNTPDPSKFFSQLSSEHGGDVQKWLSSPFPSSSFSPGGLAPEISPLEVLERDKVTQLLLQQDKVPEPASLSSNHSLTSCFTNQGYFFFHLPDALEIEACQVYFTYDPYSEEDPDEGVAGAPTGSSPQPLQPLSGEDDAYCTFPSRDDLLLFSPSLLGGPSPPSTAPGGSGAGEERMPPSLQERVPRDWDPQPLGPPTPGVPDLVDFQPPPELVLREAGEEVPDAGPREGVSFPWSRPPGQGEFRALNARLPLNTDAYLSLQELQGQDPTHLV
T1 sequence (looked up) 2: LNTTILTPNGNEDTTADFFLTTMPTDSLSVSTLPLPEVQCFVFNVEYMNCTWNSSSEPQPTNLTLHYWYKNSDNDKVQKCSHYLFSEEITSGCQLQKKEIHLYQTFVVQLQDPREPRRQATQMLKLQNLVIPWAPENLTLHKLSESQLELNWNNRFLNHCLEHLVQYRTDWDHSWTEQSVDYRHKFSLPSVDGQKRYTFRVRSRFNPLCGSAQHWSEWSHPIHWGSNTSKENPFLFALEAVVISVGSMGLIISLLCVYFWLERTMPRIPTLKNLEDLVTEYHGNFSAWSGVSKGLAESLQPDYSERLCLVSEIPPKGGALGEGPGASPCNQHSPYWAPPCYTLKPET
Assay: cell-based or functional assay

Average EC50, pSTAT5 assay in pan T cells, intact molecule: 36.6 nM
B2: CMP-158 (ligand)
chain: APTSSSTKKTQLQLEHLLLDLE[Nle]ILNGINNYKNPKLTR[Nle]L[hSer][Yn3]KF[Ygp][Nle]PKKATELKHLQCLEEELKPLEEVL[hSer]LAQSKNFHLRPRDLISNINVIVLELKGSETTF[hSer]CEYADETATIVEFLNRWITFSQSIISTLT
modifications: linker N-22 via cleavable peptide, 4x polyethylene glycol; not fully specified; reading uncertain

Average EC50, pSTAT5 assay in pan T cells, MMP2 cleaved molecule: 10 nM
B3: CMP-157, MMP2 cleaved (ligand)
chain: PLGLAGAPTSSSTKKTQLQLEHLLEDLQ[Nle]ILNGINNYKNPKLTR[Nle]L[hSer][Yn3]KF[Ygp][Nle]PKKATELKHLQCLEEELKPLEEVL[hSer]LAQSKNFHLRPRDLISNINVIVLELKGSETTF[hSer]CEYADETATIVEFLNRWITFSQSIISTLT
modifications: also: macrocycle (4x PEG linker between residue 1 and Glu25 side chain) opened by MMP2 cleavage within PLGLAG, cut site not given here

Average EC50, pSTAT5 assay in pan T cells, MMP2 cleaved molecule: 1.95 nM
B4: CMP-158, MMP2 cleaved (ligand)
chain: APTSSSTKKTQLQLEHLLLDLE[Nle]ILNGINNYKNPKLTR[Nle]L[hSer][Yn3]KF[Ygp][Nle]PKKATELKHLQCLEEELKPLEEVL[hSer]LAQSKNFHLRPRDLISNINVIVLELKGSETTF[hSer]CEYADETATIVEFLNRWITFSQSIISTLT
modifications: also: MMP2-cleaved cleavable peptide, macrocycle opened, cut site not given here, remnants on Glu22 and N-terminus unspecified

Average EC50, pSTAT5 assay in pan T cells, intact molecule: 54.5 nM
B5: CMP-157 (ligand)
chain: PLGLAGAPTSSSTKKTQLQLEHLLEDLQ[Nle]ILNGINNYKNPKLTR[Nle]L[hSer][Yn3]KF[Ygp][Nle]PKKATELKHLQCLEEELKPLEEVL[hSer]LAQSKNFHLRPRDLISNINVIVLELKGSETTF[hSer]CEYADETATIVEFLNRWITFSQSIISTLT
modifications: linker N-25 via 4x polyethylene glycol; reading uncertain

Average EC50, pSTAT5 assay in pan T cells, intact molecule: 86 nM
B8: CMP-156 (ligand)
chain: APTSSSTKKTQLQLEHLLEDLQ[Nle]ILNGINNYKNPKLTR[Nle]L[hSer][Yn3]KF[Ygp][Nle]PKKATELKHLQCLEEELKPLEEVL[hSer]LAQSKNFHLRPRDLISNINVIVLELKGSETTF[hSer]CEYADETATIVEFLNRWITFSQSIISTLT
modifications: linker N-19 via cleavable peptide, 4x polyethylene glycol; not fully specified; reading uncertain

Average EC50, pSTAT5 assay in pan T cells, MMP2 cleaved molecule: 2.9 nM
B9: CMP-155, MMP2 cleaved (ligand)
chain: APTSSSTKKTQLQLEHLLLDLQ[Nle]ILNGIENYKNPKLTR[Nle]L[hSer][Yn3]KF[Ygp][Nle]PKKATELKHLQCLEEELKPLEEVL[hSer]LAQSKNFHLRPRDLISNINVIVLELKGSETTF[hSer]CEYADETATIVEFLNRWITFSQSIISTLT
modifications: also: MMP2-cleaved cleavable peptide, macrocycle opened, cut site not given here, remnants on Glu29 and N-terminus unspecified

Average EC50, pSTAT5 assay in pan T cells, MMP2 cleaved molecule: 21.3 nM
B13: CMP-156, MMP2 cleaved (ligand)
chain: APTSSSTKKTQLQLEHLLEDLQ[Nle]ILNGINNYKNPKLTR[Nle]L[hSer][Yn3]KF[Ygp][Nle]PKKATELKHLQCLEEELKPLEEVL[hSer]LAQSKNFHLRPRDLISNINVIVLELKGSETTF[hSer]CEYADETATIVEFLNRWITFSQSIISTLT
modifications: also: MMP2-cleaved cleavable peptide, macrocycle opened, cut site not given here, remnants on Glu19 and N-terminus unspecified

The next lines start with the binder.

B1: CMP-152 (ligand)
chain: PLGLAGAPTSSSTKKTQLQLEHLLLDLQ[Nle]ILNGINNYKNPKLTR[Nle]L[hSer][Yn3]KF[Ygp][Nle]PKKATELKHLQCLEEELKPLEEVL[hSer]LAQSKNFHLRPRDLISNINVIVLELKGSETTF[hSer]CEYADETATIVEFLNRWITFSQSIISTLT
modifications: linker N-38 via 1,5‑pentanedioic acid‑9x polyethylene glycol
Average EC50, pSTAT5 assay in pan T cells, intact molecule: 16.1 nM

B6: CMP-154 (ligand)
chain: PLGLAGAPTSSSTKKTQLQLEHLLLDLQ[Nle]ILNGIENYKNPKLTR[Nle]L[hSer][Yn3]KF[Ygp][Nle]PKKATELKHLQCLEEELKPLEEVL[hSer]LAQSKNFHLRPRDLISNINVIVLELKGSETTF[hSer]CEYADETATIVEFLNRWITFSQSIISTLT
modifications: linker N-35 via 9x polyethylene glycol
Average EC50, pSTAT5 assay in pan T cells, intact molecule: 24.7 nM

B7: CMP-139, MMP2 cleaved (ligand)
chain: [PEG16′]APTSSSTKKTQLQLEHLLLDLQ[Nle]ILNGIE(PEG16′)NYKNPKLTR[Nle]L[hSer][Yn3]KF[Ygp][Nle]PKKATELKHLQCLEEELKPLEEVL[hSer]LAQSKNFHLRPRDLISNINVIVLELKGSETTF[hSer]CEYADETATIVEFLNRWITFSQSIISTLT
modifications: numbers in words are those of the source; ends and bridges not checked; also: cleavable peptide cut by MMP2, macrocycle opened, cut site not given here
Average EC50, pSTAT5 assay in pan T cells, MMP2 cleaved molecule: 3.61 nM

B10: CMP-151, MMP2 cleaved (ligand)
chain: APTSSSTKKTQLQLEHLLLDLQKILNGINNYKNPKLTR[Nle]L[hSer][Yn3]KF[Ygp][Nle]PKKATELKHLQCLEEELKPLEEVL[hSer]LAQSKNFHLRPRDLISNINVIVLELKGSETTF[hSer]CEYADETATIVEFLNRWITFSQSIISTLT
modifications: disulfide 58-105; also: MMP2-cleaved cleavable peptide, macrocycle opened, cut site not given here, remnants on Lys23 and Ala1 N-terminus unspecified
Average EC50, pSTAT5 assay in pan T cells, MMP2 cleaved molecule: 1.81 nM

B11: CMP-154, MMP2 cleaved (ligand)
chain: PLGLAGAPTSSSTKKTQLQLEHLLLDLQ[Nle]ILNGIENYKNPKLTR[Nle]L[hSer][Yn3]KF[Ygp][Nle]PKKATELKHLQCLEEELKPLEEVL[hSer]LAQSKNFHLRPRDLISNINVIVLELKGSETTF[hSer]CEYADETATIVEFLNRWITFSQSIISTLT
modifications: also: macrocycle (9x PEG linker between residue 1 and Glu35 side chain) opened by MMP2 cleavage within PLGLAG, cut site not given here
Average EC50, pSTAT5 assay in pan T cells, MMP2 cleaved molecule: 4.2 nM

B12: CMP-152, MMP2 cleaved (ligand)
chain: PLGLAGAPTSSSTKKTQLQLEHLLLDLQ[Nle]ILNGINNYKNPKLTR[Nle]L[hSer][Yn3]KF[Ygp][Nle]PKKATELKHLQCLEEELKPLEEVL[hSer]LAQSKNFHLRPRDLISNINVIVLELKGSETTF[hSer]CEYADETATIVEFLNRWITFSQSIISTLT
modifications: also: macrocycle (glutaric acid-9x PEG linker between residue 1 and Lys38 side chain) opened by MMP2 cleavage within PLGLAG, cut site not given here
Average EC50, pSTAT5 assay in pan T cells, MMP2 cleaved molecule: 2.95 nM
